From patent US8071348B2, “Protein tyrosine phosphatase substrate-trapping double mutant and uses thereof” (Albert Einstein College of Medicine of Yeshiva University, priority 2002, dated 2011)
Where a chain is given by its changes, count along the chain named. Names may count otherwise. [ ]: non-standard residue; d: D form. F2Pmp = N[C@@H](Cc1ccc(C(F)(F)P(=O)(O)O)cc1)C(=O)O

T1: Ac-Asp-Ala-Asp-Glu-F2Pmp-Leu-NH2 (Homo sapiens, UniProt P18031, C215S/Q262A)
T1 construct: The catalytic domain of PTP1B (residues 1 to 321) was used for in vitro study; made in house; host or cells: E. coli (pT7-7 plasmids)
T1 sequence (P18031 1-321 C215S/Q262A): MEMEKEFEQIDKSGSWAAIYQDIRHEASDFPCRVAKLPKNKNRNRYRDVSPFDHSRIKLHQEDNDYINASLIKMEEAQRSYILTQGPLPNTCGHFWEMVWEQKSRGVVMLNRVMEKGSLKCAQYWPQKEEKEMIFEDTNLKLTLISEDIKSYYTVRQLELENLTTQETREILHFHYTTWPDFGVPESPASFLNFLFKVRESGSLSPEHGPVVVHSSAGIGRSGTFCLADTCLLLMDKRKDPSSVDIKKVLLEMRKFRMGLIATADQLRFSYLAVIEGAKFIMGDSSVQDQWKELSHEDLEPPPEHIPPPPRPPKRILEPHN

T2: PTP1B/D181A/Q262A, catalytic domain (residues 1 to 321) (human, UniProt P18031 1-321)
T2 construct: range 1-321; Used in vitro (ITC, kinetics); also called PTP1B substrate-trapping double mutant
T2 sequence (looked up): T1 sequence (P18031 1-321 C215S/Q262A) with D181A, S215C

T3: PTP1B/D181A/C215E, catalytic domain (residues 1 to 321) (human, UniProt P18031 1-321)
T3 construct: range 1-321; Used in vitro (ITC)
T3 sequence (looked up): T1 sequence (P18031 1-321 C215S/Q262A) with D181A, S215E, A262Q

B1: PTP1B/D181A/C215S, catalytic domain (residues 1 to 321) (enzyme, human, UniProt P18031 1-321, looked up)
chain: T1 sequence (P18031 1-321 C215S/Q262A) with D181A, A262Q
B2: C215S/Q262A: PTP1B double mutant, Cys215 to Ser and Gln262 to Ala (protein, UniProt P18031 1-435, looked up, variant C215S Q262A)
Tyrosine-protein phosphatase …: MEMEKEFEQIDKSGSWAAIYQDIRHEASDFPCRVAKLPKNKNRNRYRDVSPFDHSRIKLHQEDNDYINASLIKMEEAQRSYILTQGPLPNTCGHFWEMVWEQKSRGVVMLNRVMEKGSLKCAQYWPQKEEKEMIFEDTNLKLTLISEDIKSYYTVRQLELENLTTQETREILHFHYTTWPDFGVPESPASFLNFLFKVRESGSLSPEHGPVVVHSSAGIGRSGTFCLADTCLLLMDKRKDPSSVDIKKVLLEMRKFRMGLIATADQLRFSYLAVIEGAKFIMGDSSVQDQWKELSHEDLEPPPEHIPPPPRPPKRILEPHNGKCREFFPNHQWVKEETQEDKDCPIKEEKGSPLNAAPYGIESMSQDTEVRSRVVGGSLRGAQAASPAKGEPSLPEKDEDHALSYWKPFLVNMCVATVLTAGAYLCYRFLFNSNT
B3: Ac-Asp-Ala-Asp-Glu-F2Pmp-Leu-NH2 (peptide)
peptide: Ac-DADE[F2Pmp]L-NH2
notes: Synthetic hexapeptide printed in three-letter code; also called F2Pmp-containing peptide; non-hydrolyzable substrate analog

Experiments:
EGF receptor = assay: Substrate protection: EGF receptor tyrosine phosphorylation in COS1 cells expressing PTP1B forms (anti-pTyr Western blot); format: cell-based, Monkey; conditions: COS1 cell lysates, anti-pTyr immunoblot (FIG. 4)
Method: FIG. 4 sets forth Western blots (WB) that show the level of tyrosine phosphorylation in the epidermal growth factor receptor (EGFR) upon expression of the wild-type and mutant PTP1Bs (4 μg plasmid/60 mm dish) in COS1 cells. Samples (50 μg total protein) were taken from the lysates of COS1 cells transfected with 4 μg of pJ3H plasmids expressing HA-tagged wild-type PTP1B, D181A, C215S, D181A/Q262A, or D181A/C215S. These samples were loaded into each lane for SDS-PAGE electrophoresis, and transferred onto a nitrocellulose membrane. The proteins on the membrane were first immunoblotted with anti-pTyr HRP conjugate (upper panel). The membrane was then stripped and re-probed with anti-hemagglutinin (anti-HA) HRP conjugate (lower panel).
The hemagglutinin-tagged (HA-tagged) full-length human wild-type PTP1B in pJ3H expression vector was a gift from Dr. Chemoff (30). The HA-tagged PTP1B mutants, C215S, D181A, D181A/C215S, and D181A/Q262A, were generated by PCR reactions, according to the standard procedure of the Quick-Change™ site-directed mutagenesis kit (Stratagene), using pJ3H-HA-PTP1B as a template. All mutations were verified by DNA sequencing.
Monkey kidney COS1 cells (ATCC: CRL-1650) were maintained in Dulbecco's modified Eagle's minimum essential medium (DMEM), supplemented with 10% fetal bovine serum (Life Technologies, Inc.), penicillin (50 units/ml), streptomycin (50 μg/ml), and L-glutamine (2 mM) under a humidified atmosphere containing 5% CO2. In transient transfection experiments, COS1 cells were inoculated at a density of 2×10^5 cells/60-mm dish, and grown overnight in DMEM containing 10% fetal bovine serum. Transfection was performed using LipoTAXI^R according to the manufacturer's recommendations (Stratagene, Cedar Creek, Tex.). Each transfection assay included 4 μg of purified DNA mixed with LipoTAXI^R in a 1:5 DNA:lipid ratio per 60-mm dish of cells. Following transfection, the cells were exchanged to normal culture medium, and maintained for 44 to 48 h at 37° C. and 5% CO2. The efficiency of transfection, as assessed by 5-bromo-4-chloro-3-indolyl-β-D galactoside (X-Gal) staining of pCMV-β-gal-transfected (β-Gal staining kit, Invitrogen) COS cells, was 25%.
The transfected cells (treated with or without EGF) were lysed with “lysis buffer” containing 50 mM Tris-HC1 (pH 7.5), 5 mM EDTA, 150 mM NaCl, 10 mM sodium phosphate, 10 mM sodium fluoride, 5 mM iodoacetic acid, 1 mM benzamidine, 1% Triton X-100, 10 μg/ml leupeptin, and 5 μg/ml Aprotinin. Lysate protein concentration was estimated using Bio-Rad protein assay reagent (Bio-Rad, Hercules, Calif.).
For immunoprecipitation, 1 mg of cell lysate was immunoprecipitated overnight with 30 μl of agarose-conjugated anti-hemagglutinin antibody at 4° C. Immunocomplexes were washed four times with the cell lysis buffer, and boiled for 5 min in SDS-PAGE sample buffer. Proteins in the cell lysate were separated by 8% SDS-PAGE under reducing conditions, according to the method of Laemmli (31), followed by blotting onto nitrocellulose membranes (Protran, Schleicher & Schuell). The nitrocellulose membranes were blocked with 5% non-fat dry milk in Tris-buffered saline/Tween (TBST) buffer (20 mM Tris-HC1, 150 mM NaCl, 0.1% Tween-20; pH 7.6) for 1 h at 25° C.
Thereafter, blots were incubated overnight with primary antibodies diluted in TBST containing 5% non-fat dry milk at 4° C. […]

[1] = biological target: B3; assay: ITC; complex titration curve, no Kd obtained
[2] = test system: EGFR^988-998 peptide, DADEpYLIPQQG; assay: Kinetic constants for PTP1B-catalyzed hydrolysis of pTyr-containing EGFR988-998 peptide; format: biochemical; conditions: EGFR988-998 peptide as substrate
Text: The catalytic domain of PTP1B (residues 1 to 321) was used for in vitro study. PTP1B mutants, C215S, D181A, and Q262A, were described previously (9, 25, 26). PTP1B double mutants, D181A/C215S and C215S/Q262A, were generated by PCR reactions, according to the standard procedure of the Quick-Change™ site-directed mutagenesis kit (Stratagene), using pT7-7/PTP1B/C215S as a template. PTP1B double mutants, D181A/C215E and D181A/Q262A, were generated by similar PCR procedures, using pT7-7/PTP1B/D181A as a template. The recombinant wild-type and mutant PTP1Bs were expressed in E. coli, and purified to homogeneity as described (25, 27). Protein concentration was determined from absorbance measurement at 280 nm, using an absorbance coefficient of 1.24 for 1 mg/ml PTP1B.
All assays were performed at 25° C. in buffer (pH 7.0, ionic strength=0.15 M) containing 50 mM 3,3-dimethylglutarate and 1 mM EDTA. A continuous spectrophotometric assay, previously described (28), was employed to determine kcat and Km for the pTyr-containing peptides. The dephosphorylation reaction was monitored by either an increase in absorbance at 282 nm, or an increase in fluorescence at 305 nm. Fluorometric and absorbance determinations were performed on a Perkin-Elmer LS50B fluorometer and a Perkin-Elmer Lambda 14 spectrophotometer, respectively. The instruments were equipped with a water-jacketed cell holder, permitting maintenance of the reaction mixture at the desired temperature (25° C.).

[3] = biological target: T1, Ac-Asp-Ala-Asp-Glu-F2Pmp-Leu-NH2; assay: Isothermal titration calorimetry, binding of PTP1B and mutants to F2Pmp peptide; conditions: 25° C.; one peak absorbing heat, the other releasing heat
Method: FIG. 3 portrays calorimetric isothermal titration for the reaction of peptide Ac-Asp-Ala-Asp-Glu-F2Pmp-Leu-NH2 with PTP1B/D181A/Q262A. The upper graph depicts raw data for thirty 8-μl injections of the peptide (0.5 mM stock) into the isothermal cell containing 32 μM PTP1B/D181A/Q262A, at 4-min intervals and 25° C. Both the protein and the peptide were in 50 mM 3,3-dimethylglutarate buffer (I=0.15 M, pH 7.0) containing 1 mM DTT. The lower graph depicts an integration curve showing experimental points that were obtained by integration of the above peaks as plotted against the molar ratio of the peptide to PTP1B/D181A/Q262A within the reaction cell. The solid line corresponds to the best fit to the data according to the nonlinear, least-squares regression algorithm, ORIGIN (29).
All isothermal titration calorimetry experiments were performed using an MCS Isothermal Titration Calorimetry System from Microcal Inc. (Northampton, Mass.). […] The ionic strength of the buffer was adjusted to 0.15 M by addition of NaCl. Protein concentration in the calorimeter cell was 27-85 μM, while the ligand concentration in the syringe was 0.37-1 mM.
(§1) The PTP1B samples used in the isothermal titration calorimetry experiments were dialyzed completely against buffer. High-concentration stock solutions were prepared for ligands with distilled water, and adjusted to pH 7.0. Stock was diluted at least 26-fold with 50 mM 3,3-dimethylglutarate buffer before titration. Protein dilution during titration was determined by titration of buffer into the protein solution. […] The heat of ligand dilution was corrected by subtracting the average heat of injection after saturation.
The binding data were analyzed using ORIGIN software (29). Binding constant, K, and enthalpy change, ΔH, were used to calculate free energy change, ΔG, and entropy change, ΔS, according to equation [1]: −RTLnK=ΔG=ΔH−TΔS [1] where R is the gas constant and T is the absolute temperature.

[4] = biological target: T2, PTP1B/D181A/Q262A, catalytic domain …; assay: ITC, 25 C, pH 7.0
Method: (§2) All isothermal titration calorimetry experiments were performed using an MCS Isothermal Titration Calorimetry System from Microcal Inc. (Northampton, Mass.). Experiments at pH 7.0 were conducted at 25° C., in 50 mM 3,3-dimethylglutarate buffer containing 1 mM DTT. The ionic strength of the buffer was adjusted to 0.15 M by addition of NaCl. Protein concentration in the calorimeter cell was 27-85 µM, while the ligand concentration in the syringe was 0.37-1 mM.
as §1, with “Stock was diluted at least 26-fold with 50 mM 3,3-dimethylglutarate buffer before titration.” left out
(§3) A typical titration curve and binding isotherm for the binding of D181A/Q262A to Ac-Asp-Ala-Asp-Glu-F_2Pmp-Leu-NH_2 is shown in FIG. 3. From curve-fitting of the binding isotherms, the stoichiometry for the binding of the peptide to D181A/Q262A was determined to be 1:1.

[5] = biological target: T3, PTP1B/D181A/C215E, catalytic domain …; assay: ITC, 25 C, pH 7.0
Method: as §2
as §1, with “Stock was diluted at least 26-fold with 50 mM 3,3-dimethylglutarate buffer before titration.” left out
as §3

Molecule	level of pTyr in the EGF receptor / enhancement of EGF receptor phosphorylation (EGF receptor)	binding stoichiometry [1]	phosphatase activity [2]	shape of ITC titration curve [3]	Kd [4] [nM]	Kd [5] [nM]
B1	comparable affinity to that of C215S	0.1	no measurable activities			
B2			no measurable activities	displayed two peaks		
B3					6.8	1300
